Data reported in article PMC10003451, “Phosphorylated Peptide Derived from the Myosin Phosphatase Target Subunit Is a Novel Inhibitor of Protein Phosphatase-1” (International Journal of Molecular Sciences, 2023).
Where no end group is shown, it is not given here. [ ]: non-standard residue; d: D form. pT = C[C@@H](OP(=O)(O)O)[C@H](N)C(=O)O

Key:
[1] = target: native catalytic subunit of protein phosphatase-1 (PP1c) from rabbit skeletal muscle (rabbit, UniProt P62139 1-330); experiment: cell-based or functional assay
[2] = target: Flag-MYPT1-PP1c complex (myosin phosphatase holoenzyme) ( | human (endogenous in …, UniProt O14974 1-1030; P62140 1-327); experiment: cell-based or functional assay
[3] = target: T1, recombinant protein phosphatase-1 catalytic subunit alpha (PP1cα) (UniProt P62136 1-330); experiment: MST; label-free (Monolith NT.LabelFree, intrinsic fluorescence of rPP1cα); 16-point two-fold peptide dilution 9.16 nM-300 µM mixed with rPP1cα 2 µM; 25 mM Tris/HCl, 100 mM NaCl, 1 mM DTT, 0.1% PEG 8000, pH 8.0; conditions: both partners purified
T1 construct: protein phosphatase-1 catalytic subunit, alpha isoform; recombinant; also called rPP1cα; recombinant PP1c; source: E. coli, purified from the bacterial lysate

[4] = target: T1, recombinant protein phosphatase-1 …; experiment: ITC; MicroCal ITC200; rPP1cα (0.5-2 µM) in the cell, peptide (5-20 µM) in the syringe, 19 injections of 2 µL; 25 mM Tris/HCl pH 8.0, 150 mM NaCl, 1 mM TCEP; 25 °C; one set of sites model; conditions: both partners purified

native catalytic subunit of protein phosphatase-1 (PP1c) from rabbit skeletal muscle, sequence (P62139 whole entry): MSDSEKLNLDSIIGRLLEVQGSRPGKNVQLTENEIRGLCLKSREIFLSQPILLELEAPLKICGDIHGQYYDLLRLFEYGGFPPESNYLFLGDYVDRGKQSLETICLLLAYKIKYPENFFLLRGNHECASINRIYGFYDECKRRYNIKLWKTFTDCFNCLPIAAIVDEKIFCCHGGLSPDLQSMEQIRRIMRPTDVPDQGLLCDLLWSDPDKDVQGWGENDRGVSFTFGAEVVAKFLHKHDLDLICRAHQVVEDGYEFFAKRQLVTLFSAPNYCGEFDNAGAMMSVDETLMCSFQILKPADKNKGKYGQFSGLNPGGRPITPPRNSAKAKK
T1 sequence (P62136 whole entry, canonical isoform): as the sequence (P62139 whole entry) above
Flag-MYPT1-PP1c complex (myosin phosphatase holoenzyme) ( | human, sequence (O14974 whole entry, chain 1 of 2): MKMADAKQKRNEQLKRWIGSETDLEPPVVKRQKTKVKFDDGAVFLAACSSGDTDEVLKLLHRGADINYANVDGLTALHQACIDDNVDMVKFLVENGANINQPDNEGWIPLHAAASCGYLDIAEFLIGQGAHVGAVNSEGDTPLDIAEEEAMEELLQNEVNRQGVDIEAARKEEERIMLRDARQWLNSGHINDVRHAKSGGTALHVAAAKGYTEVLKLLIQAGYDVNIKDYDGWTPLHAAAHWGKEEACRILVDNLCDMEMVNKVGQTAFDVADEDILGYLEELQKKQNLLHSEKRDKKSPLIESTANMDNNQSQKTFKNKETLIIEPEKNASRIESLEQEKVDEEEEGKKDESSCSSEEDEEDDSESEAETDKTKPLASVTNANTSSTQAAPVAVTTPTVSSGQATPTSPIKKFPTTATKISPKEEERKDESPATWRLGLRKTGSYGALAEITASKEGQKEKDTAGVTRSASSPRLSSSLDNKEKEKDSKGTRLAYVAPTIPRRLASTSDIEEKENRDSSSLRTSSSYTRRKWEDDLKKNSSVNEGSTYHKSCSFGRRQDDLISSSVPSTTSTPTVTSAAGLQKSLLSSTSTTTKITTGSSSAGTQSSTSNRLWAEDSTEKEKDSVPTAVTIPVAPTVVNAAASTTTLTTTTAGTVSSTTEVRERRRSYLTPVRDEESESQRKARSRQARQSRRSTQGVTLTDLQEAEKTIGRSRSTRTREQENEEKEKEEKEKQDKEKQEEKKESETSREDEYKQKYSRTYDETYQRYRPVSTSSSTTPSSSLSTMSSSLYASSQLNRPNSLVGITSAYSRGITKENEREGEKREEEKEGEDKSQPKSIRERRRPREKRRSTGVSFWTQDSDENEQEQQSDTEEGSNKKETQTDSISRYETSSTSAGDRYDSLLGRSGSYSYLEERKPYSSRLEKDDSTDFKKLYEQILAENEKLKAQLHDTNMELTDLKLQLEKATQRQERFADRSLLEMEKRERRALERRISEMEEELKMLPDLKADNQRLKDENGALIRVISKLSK
Flag-MYPT1-PP1c complex (myosin phosphatase holoenzyme) ( | human, sequence (P62140 whole entry, chain 2 of 2): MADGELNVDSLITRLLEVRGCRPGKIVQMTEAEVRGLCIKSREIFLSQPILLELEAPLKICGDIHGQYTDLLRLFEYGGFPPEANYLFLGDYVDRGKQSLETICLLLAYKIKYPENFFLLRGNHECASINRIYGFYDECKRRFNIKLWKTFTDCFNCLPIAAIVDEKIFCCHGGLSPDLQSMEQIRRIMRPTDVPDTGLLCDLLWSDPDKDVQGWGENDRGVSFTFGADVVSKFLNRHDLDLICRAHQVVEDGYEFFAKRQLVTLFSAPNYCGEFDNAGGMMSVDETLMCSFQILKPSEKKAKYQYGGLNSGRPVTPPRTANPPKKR

IC50 of inhibition of the phosphatase activity of rabbit skeletal muscle PP1c with 32P-MLC20 substrate [1]: 3.84 µM
half-life of dephosphorylation of 10 µM 32P-MLC20 by 100 nM PP1c with 0, 10, 100 and 500 µM peptide (101.6, 149.7, 227.9, 604.06 s); the peptide competes with the substrate P-MLC20 on PP1c [1]: 604 s
half-life of dephosphorylation of 100 µM peptide by 100 nM PP1c in the presence of 10 µM P-MLC20 (dot blot; 87.9 min without P-MLC20) [1]: ~103 min
IC50 of inhibition of the phosphatase activity of Flag-MYPT1-PP1c with 32P-MLC20 substrate [2]: 12.2 µM
Kd [3]: 33.2 ± 5.12 µM
Kd [4]: 390 ± 180 nM
B1: P-Thr696-MYPT1^690−701 (phosphorylated peptide of the inhibitory region of myosin phosphatase target subunit-1) (peptide)
peptide: RQSRRS[pT]QGVTL
notes: myosin phosphatase target subunit-1 (MYPT1), residues 690-701, phosphorylated at Thr696; no tags; also called R^690QSRRS(pT696)QGVTL^701; P-Thr-MYPT1^690−701; source: synthetic peptide, bought: Pepmic
